Laboratory results published in article PMC3080401, “Oligomerization of the E. coli Core RNA Polymerase: Formation of (α2ββ'ω)2–DNA Complexes and Regulation of the Oligomerization by Auxiliary Subunits”.

Experiments:
[1] = target: RNA polymerase core enzyme (alpha2 beta beta' omega) (Escherichia coli, UniProt P0A7Z4;P0A8V2;P0A8T7;P0A800 1-329;1-1342;1-1407;1-91); experiment: EMSA; 40-160 nM core; tandem (D) complex; EMSA buffer D (1x): 20 mM Tris-acetate, 10 mM Mg acetate, 50 mM K acetate, 1 mM DTT, pH 7.8; native PAGE in 0.5x TBE running buffer; 37 C for the tac and slyD template reactions, otherwise temperature not stated; details: protein: native; chain copies: 2;1;1;1; label: 5'-32P
[2] = target: RNA polymerase holoenzyme (alpha2 beta beta' omega sigma70) (Escherichia coli, UniProt P0A7Z4;P0A8V2;P0A8T7;P0A800;P00579 1-329;1-1342;1-1407;1-91;1-613); experiment: EMSA; 40-160 nM holoenzyme; single-copy (M) complex; EMSA buffer D (1x): 20 mM Tris-acetate, 10 mM Mg acetate, 50 mM K acetate, 1 mM DTT, pH 7.8; native PAGE in 0.5x TBE running buffer; 37 C for the tac and slyD template reactions, otherwise temperature not stated; details: protein: native; chain copies: 2;1;1;1;1; label: 5'-32P

Question: Does CGCGCCAACAGCGACATCAAATTTGTCGCC (mixed) [short DNA probe (Fig 2E)] bind [1]?
Answer: binds

Question: Does CGCGCCAACAGCGACATCAAATTTGTCGCC (mixed) [short DNA probe (Fig 2E)] bind [2]?
Answer: binds
